In the Human Domainome abundance scans (Beltran et al. 2025):
± gives the uncertainty stated by the source.

B1: Membrane-associated guanylate kinase, WW and PDZ domain-containing protein 1, residues 352 to 401; numbered along this chain, Q96QZ7 (parent)
chain: TEELDSELELPAGWEKIEDPVYGIYYVDHINRKTQYENPVLEAKRKKQLE

Variants of: B1
Test: abundance fitness (aPCA) (normalised: wild type 0, dead -1); higher = more abundant; growth selection in yeast, the domain comes from the species named
Details: Homo sapiens

Abundance fitness of substitutions, site by site:
K44: P -0.27 ± 0.065, W -0.237 ± 0.046, D -0.106 ± 0.082, E 0.019 ± 0.043, T -0.2 ± 0.07, G -0.068 ± 0.051, V -0.286 ± 0.062, S -0.106 ± 0.05, F -0.186 ± 0.072, R -0.057 ± 0.045, Y -0.041 ± 0.068, M -0.064 ± 0.07, H -0.196 ± 0.15, L -0.061 ± 0.039, C -0.03 ± 0.078, A -0.079 ± 0.051, Q -0.086 ± 0.077, I -0.438 ± 0.13
K33: E -0.488 ± 0.083, C -0.074 ± 0.074, P -0.815 ± 0.13, Q -0.034 ± 0.046, G -0.414 ± 0.054, T -0.158 ± 0.066, D -0.066 ± 0.1, S -0.222 ± 0.059, A -0.057 ± 0.048, H -0.463 ± 0.14, W -0.347 ± 0.051, V -0.028 ± 0.044, Y -0.331 ± 0.09, L -0.028 ± 0.039, N -0.169 ± 0.12, I -0.291 ± 0.083, M -0.236 ± 0.081, F -0.52 ± 0.15
L41: M 0.03 ± 0.074, S -0.011 ± 0.055, Q 0.001 ± 0.044, E -0.053 ± 0.071, R -0.039 ± 0.037, A 0.038 ± 0.05, K -0.035 ± 0.078, G -0.094 ± 0.04, Y -0.021 ± 0.075, C -0.116 ± 0.075, V 0.001 ± 0.045, W -0.114 ± 0.042, T -0.058 ± 0.076, F 0.064 ± 0.087, P -0.128 ± 0.07, N -0.137 ± 0.12, I -0.324 ± 0.11, H 0.032 ± 0.044
Y36: W -0.093 ± 0.06, H -0.093 ± 0.043, F -0.308 ± 0.085, A -0.102 ± 0.067, C -0.463 ± 0.08, T -0.041 ± 0.078, V -0.11 ± 0.059, N -0.176 ± 0.063, E -0.172 ± 0.041, S -0.086 ± 0.059, M 0.096 ± 0.083, D -0.32 ± 0.069, P -0.161 ± 0.046, R 0.059 ± 0.051, Q -0.134 ± 0.049, K -0.058 ± 0.048, I -0.185 ± 0.041, L -0.048 ± 0.063
E42: A -0.225 ± 0.05, Y -0.366 ± 0.055, R -0.565 ± 0.053, V -0.149 ± 0.043, L -0.231 ± 0.048, Q -0.222 ± 0.081, N -0.285 ± 0.069, F -0.535 ± 0.13, H -0.599 ± 0.17, C -0.297 ± 0.046, P -0.361 ± 0.05, W -0.26 ± 0.051, D -0.192 ± 0.062, K -0.505 ± 0.091, T -0.086 ± 0.042, I -0.117 ± 0.087, G -0.137 ± 0.038
V27: P -0.394 ± 0.055, M 0.038 ± 0.068, R -0.069 ± 0.044, Q -0.227 ± 0.087, T -0.26 ± 0.042, W -0.242 ± 0.053, L -0.073 ± 0.062, N -0.34 ± 0.12
Q35: F -0.68 ± 0.27, E -0.373 ± 0.055, N -0.516 ± 0.049, W -0.48 ± 0.055, G -0.487 ± 0.041, C -0.338 ± 0.095, D -0.597 ± 0.11, T 0.009 ± 0.078, A -0.26 ± 0.046, R -0.334 ± 0.051, L -0.423 ± 0.045, Y -0.15 ± 0.15, V -0.188 ± 0.056, I -0.571 ± 0.2, H -0.588 ± 0.18, M -0.18 ± 0.078
V40: L -0.016 ± 0.038, S -0.026 ± 0.061, A 0.068 ± 0.05, T 0.006 ± 0.08, F -0.385 ± 0.1, K -0.055 ± 0.041, W -0.177 ± 0.053, P -0.404 ± 0.099, M -0.033 ± 0.05, Y -0.237 ± 0.086, N -0.038 ± 0.1, E -0.25 ± 0.073, G -0.047 ± 0.053, R -0.099 ± 0.054, I -0.197 ± 0.087, Q -0.385 ± 0.069
E37: C -0.292 ± 0.051, Q -0.176 ± 0.071, L -0.213 ± 0.049, A -0.192 ± 0.053, D -0.151 ± 0.079, W -0.47 ± 0.046, N -0.005 ± 0.098, P -0.56 ± 0.087, V -0.286 ± 0.048, S -0.162 ± 0.042, R -0.401 ± 0.058, G -0.213 ± 0.044, Y -0.611 ± 0.089, K -0.282 ± 0.11, H -0.321 ± 0.11, M -0.296 ± 0.07, T -0.177 ± 0.057, F -0.438 ± 0.054
N38: F -0.058 ± 0.062, G -0.45 ± 0.059, H 0.171 ± 0.057, A -0.146 ± 0.059, D -0.158 ± 0.064, L -0.271 ± 0.044, C -0.747 ± 0.051, Q -0.387 ± 0.1, Y -0.365 ± 0.097, K -0.444 ± 0.1, W -0.138 ± 0.072, I -0.61 ± 0.2, P -0.481 ± 0.1, T -0.341 ± 0.068, M -0.116 ± 0.064, E -0.254 ± 0.084, R -0.079 ± 0.04, S -0.066 ± 0.065
I30: V -0.064 ± 0.044, A -0.093 ± 0.041, N -0.397 ± 0.08, S -0.279 ± 0.063, L -0.082 ± 0.054, C -0.322 ± 0.077, K -0.078 ± 0.067, T -0.256 ± 0.078, D -0.459 ± 0.083, P -0.208 ± 0.076, G -0.203 ± 0.042, M -0.311 ± 0.088, R -0.128 ± 0.038, F -0.195 ± 0.041, Y -0.086 ± 0.1, E -0.079 ± 0.071, W -0.431 ± 0.072, Q -0.215 ± 0.047
D28: Q -0.934 ± 0.14, G -1.07 ± 0.065, M -1.14 ± 0.15, R -1.09 ± 0.059, A -1.16 ± 0.095, C -1 ± 0.066, E -0.696 ± 0.065, F -1.12 ± 0.27, Y -0.861 ± 0.24, H -0.634 ± 0.048, V -1.24 ± 0.067, P -0.855 ± 0.14, N -0.303 ± 0.086, K -0.764 ± 0.13
P39: F -1 ± 0.17, D -0.314 ± 0.098, Y -1.21 ± 0.23, L -0.615 ± 0.048, G -0.393 ± 0.057, E -0.466 ± 0.057, A -0.379 ± 0.042, S -0.597 ± 0.069, H -1.3 ± 0.28, V -0.699 ± 0.062, M -0.714 ± 0.086, C -0.817 ± 0.12, W -0.894 ± 0.072, K -0.857 ± 0.15, R -0.648 ± 0.046, I -1.04 ± 0.23, Q -0.447 ± 0.087
H29: L -0.156 ± 0.042, S -0.26 ± 0.064, E -0.354 ± 0.081, A -0.229 ± 0.056, K -0.157 ± 0.071, F -0.682 ± 0.14, C -0.502 ± 0.095, T 0.016 ± 0.064, R -0.217 ± 0.043, Q -0.465 ± 0.086, M -0.386 ± 0.057, N -0.01 ± 0.082, D -0.535 ± 0.091, V -0.207 ± 0.038, W -0.439 ± 0.049, P -0.515 ± 0.057, G -0.317 ± 0.042
R45: D -0.171 ± 0.072, H -0.564 ± 0.19, V -0.162 ± 0.052, T 0.048 ± 0.075, S -0.067 ± 0.05, P -0.056 ± 0.059, W -0.352 ± 0.048, C -0.241 ± 0.082, M -0.159 ± 0.083, G -0.113 ± 0.039, E 0.073 ± 0.047, A -0.193 ± 0.061, L -0.302 ± 0.066, Y -0.266 ± 0.045, F -0.248 ± 0.064, K 0.02 ± 0.062, Q -0.032 ± 0.069, N -0.363 ± 0.073
R32: F -0.431 ± 0.063, A -0.249 ± 0.044, V -0.333 ± 0.042, W -0.519 ± 0.053, D 0.067 ± 0.087, E 0.002 ± 0.055, H 0.125 ± 0.1, L -0.119 ± 0.055, C -0.168 ± 0.07, T -0.607 ± 0.093, P -0.564 ± 0.045, I -0.387 ± 0.11, K -0.061 ± 0.083, G -0.013 ± 0.039, S -0.119 ± 0.041
K46: H 0.173 ± 0.1, E -0.256 ± 0.072, C -0.103 ± 0.046, R -0.094 ± 0.056, D 0.012 ± 0.052, Q -0.026 ± 0.064, G -0.089 ± 0.038, T -0.333 ± 0.11, N -0.41 ± 0.11, P -0.044 ± 0.087, S -0.093 ± 0.041, A -0.063 ± 0.058, M -0.328 ± 0.088, F -0.27 ± 0.1, L -0.133 ± 0.064
N31: R -0.201 ± 0.061, I -0.802 ± 0.16, K -0.265 ± 0.093, G 0.009 ± 0.04, D -0.28 ± 0.055, A -0.188 ± 0.051, L -0.325 ± 0.041, P -0.663 ± 0.071, V -0.756 ± 0.055, Y -0.671 ± 0.085, Q -0.388 ± 0.12, E -0.396 ± 0.069, W -0.843 ± 0.13, H -0.069 ± 0.075, T -0.134 ± 0.063, C -0.123 ± 0.077, S -0.135 ± 0.064, M -0.444 ± 0.088, F -0.784 ± 0.15
T34: K -0.219 ± 0.088, N -0.237 ± 0.083, S -0.11 ± 0.048, A -0.413 ± 0.053, F -0.387 ± 0.079, R -0.035 ± 0.05, H -0.407 ± 0.09, C 0.042 ± 0.074, L -0.603 ± 0.079, G -0.453 ± 0.061, M -0.265 ± 0.068, V -0.232 ± 0.045, W -0.193 ± 0.048, Y -0.324 ± 0.089, Q -0.182 ± 0.072, D -0.414 ± 0.094, I -0.502 ± 0.076, E -0.316 ± 0.083
A43: H -0.161 ± 0.087, Q -0.024 ± 0.047, P -0.184 ± 0.079, C -0.246 ± 0.078, K -0.236 ± 0.1, V -0.131 ± 0.042, R -0.11 ± 0.042, T 0.045 ± 0.064, I -0.092 ± 0.088, N -0.014 ± 0.047, L -0.012 ± 0.059, Y -0.33 ± 0.1, W -0.231 ± 0.069, G -0.137 ± 0.05, F -0.357 ± 0.1, E -0.011 ± 0.053, M -0.044 ± 0.08, D 0.003 ± 0.049
